Test results taken from patent US20160251444A1.
One block for each molecule: values may come before it.

Key:
[1] = target: CD20 on human cells (Daudi cells, B cells in PBMCs) (human) (UniProt P11836); test: cell-based or functional assay
[2] = target: Soluble single-chain human neonatal Fc receptor (scFcRn) (human) (UniProt P55899); test: SPR (Biacore X), scFcRn immobilized on CM5 chip, pH 6.0, two-state model; Run 3
[3] = target: Soluble single-chain human neonatal Fc receptor (scFcRn) (human) (UniProt P55899); test: SPR (Biacore X), scFcRn immobilized on CM5 chip, pH 6.0, two-state model; Run 1
[4] = target: Soluble single-chain human neonatal Fc receptor (scFcRn) (human) (UniProt P55899); test: SPR (Biacore X), scFcRn immobilized on CM5 chip, pH 6.0, two-state model; mean of 3 runs
[5] = target: Soluble single-chain human neonatal Fc receptor (scFcRn) (human) (UniProt P55899); test: SPR (Biacore X), scFcRn immobilized on CM5 chip, pH 6.0, two-state model; Run 2
[6] = target: CD22 on human cells (B cells in PBMCs, Daudi, D1-1) (human) (UniProt P20273); test: cell-based or functional assay

Chain of CD20 on human cells (Daudi cells, B cells in PBMCs) (human) (P11836 whole entry): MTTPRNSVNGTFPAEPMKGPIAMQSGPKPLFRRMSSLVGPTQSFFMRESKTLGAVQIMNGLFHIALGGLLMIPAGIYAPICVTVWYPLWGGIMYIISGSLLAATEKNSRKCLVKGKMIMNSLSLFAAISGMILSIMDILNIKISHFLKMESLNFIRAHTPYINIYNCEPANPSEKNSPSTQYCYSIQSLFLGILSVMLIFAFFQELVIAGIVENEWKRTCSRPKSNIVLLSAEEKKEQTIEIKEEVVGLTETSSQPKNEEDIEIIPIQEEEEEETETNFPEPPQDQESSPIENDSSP

Molecule: 20*-2b (Ck-IgG-IFNα: veltuzumab with four IFNα2b fused at the light chains) (from UniProt P01563 24-188)
in vitro cytotoxicity in Daudi cells (MTS assay), EC50 [1]: 0.0002 nM

Molecule: 20-2b (Fc-IgG-IFNα: veltuzumab with four IFNα2b fused at the heavy chains) (from UniProt P01563 24-188)
in vitro cytotoxicity in Daudi cells (MTS assay), EC50 [1]: 0.0002 nM

Now from value to molecule:

Kd [2]: 15.8 nM | Kd [3]: 15 nM | Kd [4]: 16.3 nM | Kd [5]: 17.9 nM
Molecule: Epratuzumab (humanized anti-CD22 IgG1) (antibody)

surface CD22 on B cells of PBMCs after treatment, % of isotype control MFI (flow cytometry) [6]: 45 % control
B1: F(ab')2 fragment of epratuzumab (protein, INN chains, looked up)
VH: QVQLVQSGAEVKKPGSSVKVSCKASGYTFTSYWLHWVRQAPGQGLEWIGYINPRNDYTEYNQNFKDKATITADESTNTAYMELSSLRSEDTAFYFCARRDITTFYWGQGTTVTVSS
VL: DIQLTQSPSSLSASVGDRVTMSCKSSQSVLYSANHKNYLAWYQQKPGKAPKLLIYWASTRESGVPSRFSGSGSGTDFTFTISSLQPEDIATYYCHQYLSSWTFGGGTKLEIK
modifications: F(ab')2
